The numbers were not newly measured in patent publication US9889085B1, “Therapeutic methods for the treatment of diabetes and related conditions for patients with high baseline HbA1c” (Intarcia Therapeutics, Inc., priority 2014, dated 2018), which cites them from elsewhere.

The conditions of the series: in vivo.

In the case of EGTFTSDVSSYLEGQAAKEFIAWLVKGR [GLP-1], the half-life entry is “approximately 2 minutes”.

“PYY: 36 amino acid residue peptide amide”: the half-life result is given as “approximately 8 minutes”.
